Measured values: the RNAGym collection of RNA variant scans (doi:10.1073/pnas.2313332121)
This sample holds only a part of the variants without activity.

B1: TPR 5TU (parent)
chain: GGAUCUUCUCGAUCUAACAAAAAAGACAAAUCUGCCACAAAGCUUGAGAGCAUCUUCGGAUGCAGAGGCGGCAGCCUUCGGUGGCGCGAUAGCGCCAACGUUCUCAACUAUGACACGCAAAACGCGUGCUCCGUUGAAUGGAGUUUAUCAUG

Variants of: B1
Assay: polymerase ribozyme fitness, log enrichment relative to wild type (log ratio); higher = more active; in vitro selection for triplet polymerase activity
Method in brief: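 One round of in vitro selection, in triplicate, was applied to PCR-built, transcribed mutant libraries of each subunit of a heterodimeric triplet polymerase ribozyme. The steps were annealing with a biotinylated primer, partner subunit and triplets, incubation frozen at −7 °C, gel excision of extended constructs, streptavidin-bead capture and RT-PCR. Fitness is the logarithm, base 2, of genotype enrichment over wild-type enrichment from inverse-variance-weighted replicate averages of Illumina-sequenced inputs and outputs, keeping genotypes with ≥10 input reads and ≥1 read per output.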

Variant	polymerase ribozyme fitness (log ratio)
C35U C54G A66U C79A G80A G83C G84A C96U U101G U148C	≤ -4.2
C8G C10A A30C U56A C57G C87U U102G G143C	≤ -4.2
C54U U55C C72U C87A	≤ -4.2
C10U A24U C35U A91G C93G A98C C118U	≤ -4.2
U7A A26G U31C G50U A73C G86A U104G	≤ -4.2
C95U U101G C105U C125U A142U	≤ -4.2
C5G G50C	-3.2
C103G U144A	-2.15
C10U U45A C99A	≤ -4.2
G50A U53A U56A C75U C116A U134G	≤ -4.2
C8A A17G A73U U78G C87U	≤ -4.2
A52G G84A C118U C123G	-1.29
C14U A138C	-3.75
C5A A12G A23C G84A	-4.02
G50A U56C	-1.2
A39U G74A C85U A91C C125A	≤ -4.2
U101G C118A G126A	-3.59
U44A C75G C96U	-4.08
U45A G58C	-2.28
A24U C32G U135G G143A	-4.12
U9C A49G A106G C116U G136A A137C G143A U144C U148G	≤ -4.2

Variant	polymerase ribozyme fitness (log ratio)
C27G C38U A49C G65C C87G C114A A119G U145A	-4.07
A52U C57U G83C	-3.29
G25A A37G C54A C87G	≤ -4.2
C10A A28G U56G C85A	≤ -4.2
G81C G143C	-2.03
A17U A41U G86U A113C	≤ -4.2
C5G U9C A16C A28G A30U C32G C35A G59U G92U C105U G143C	≤ -4.2
C38U U44A A47U G67C C69U G84A	≤ -4.2
U15A A19C A29U G50A C95U A142U	≤ -4.2
U6A A12U U53A C114U	-3.59
U6C A47C C85A	-3.96
C85G G128C	≤ -4.2
C14G A73G G88C A98U C99G	≤ -4.2
U55A U134G	-1.99
G92U U101G	0.0893
A21C G25C C76G A137C U145G	≤ -4.2
C10G C76U	-3.93
G80U A110G	-4.05
A60U G84A C116U	-1.05
G70A G74C C125G U144G	≤ -4.2
C79A G86A	≤ -4.2

Variant	polymerase ribozyme fitness (log ratio)
A20G A30U G83A A110C U148C	≤ -4.2
A20U U56A A73G G94A U101A	-2.45
U55A C57U A66C G94A A106G G128U G140A	≤ -4.2
A41G G83C C99A	-2.03
A120U U145C	-0.0409
A21G A41U A64U C85G A98U	≤ -4.2
A49C A52G C72A	≤ -4.2
A17U A26C G62A G86U C99U U134C A137U G140A A147U	≤ -4.2
A30U C87G C116A G141A	≤ -4.2
C54A C85G U102G	≤ -4.2
A39G A89G G92A G141C	-3.85
U7A A28U G46C G50A C95G C103G C129A U144C	≤ -4.2
G74U	-3.33
A3C U90A	-4.17
C93A G126A A137G	-2.09
C36A C57U A66C C99A	≤ -4.2
C54A C57U G59U	-0.27
A24U C38U	0.361
C93U A150G	-1.93
C5U G84A A142U	-0.976
C63U C75U U82A	0.455

Variant	polymerase ribozyme fitness (log ratio)
U6G G58C C131A	-2.15
C38G G42C G71C C95A C96A	≤ -4.2
A22C G84A G136C C149A	≤ -4.2
C85A U109G	-1.33
A47U C69U C93A A107C A115C	≤ -4.2
G42U G70C G83C G141C	≤ -4.2
U13C C125A G136C U145C U146C	-3.59
G46C C85U A110U	-4.17
U33C U56C G59C C79A C95U C123A G140U	≤ -4.2
C8A A22C C27U U44C C51U C79A C93G C95G C105G	≤ -4.2
A22C G46C G83C	-3.01
G74A G80A C85A G92A C125A G136C A138G	≤ -4.2
U15C C18U C85G C118U G136U	-3.19
C14U G81A	-1.14
G48U C85A U127C	-2.74
C5U U13A A23G C36U G46A A97U C103U	≤ -4.2
U56A G83C C87U A89C C108U U144C	≤ -4.2
U61A G80A	-2.08
G86U A107G G143C U151A	≤ -4.2
G25U C85A	-3.88
U61A G83C	-3.05
